Legend:
[1] = fluorescence microscopy, NuMA volume at spindle poles; details: control: DMSO
[2] = confocal microscopy of metaphase cells; details: glycan lost; control: wt NuMA-GFP in NuMA-depleted HeLa
[3] = Galectin-3 over NuMA fluorescence intensity; details: glycan lost; control: wt NuMA-GFP in NuMA-depleted HeLa

Question: For “NuMA (Nuclear Mitotic Apparatus protein): swainsonine”, which localisation_or_trafficking ([1]; glycan changed form) is on record?
Answer: no change

Question: With “NuMA (Nuclear Mitotic Apparatus protein): Ac-5SGlcNAc” as the substance, how does the localisation_or_trafficking ([1]; glycan lost) read?
Answer: changes

Question: With “NuMA (Nuclear Mitotic Apparatus protein): GalNAcα-O-benzyl” as the substance, how does the localisation_or_trafficking ([1]; glycan lost) read?
Answer: no change

Question: With “NuMA (Nuclear Mitotic Apparatus protein): S1844A” as the substance, how does the localisation_or_trafficking [2] read?
Answer: changes

Question: What about the “other: Galectin-3 recruitment to spindle poles” value [3] of the same substance?
Answer: decreases

From paper PMC5431095
